The source of these data is article doi:10.1101/2022.06.13.495963 (bioRxiv, 2022).

A word on the Kd: it is the equilibrium constant for the complex coming apart. Low readings indicate tighter binding, high ones weaker binding.

The target in the test is B-Myb negative regulatory domain, amino acids 440-600 (NRD^440-600) (human, UniProt P10244-1 440-600). Briefly: ITC. For orientation: In ITC the heat of successive injections is recorded.
B-Myb negative regulatory domain, amino acids 440-600 (NRD^440-600), sequence (P10244 440-600): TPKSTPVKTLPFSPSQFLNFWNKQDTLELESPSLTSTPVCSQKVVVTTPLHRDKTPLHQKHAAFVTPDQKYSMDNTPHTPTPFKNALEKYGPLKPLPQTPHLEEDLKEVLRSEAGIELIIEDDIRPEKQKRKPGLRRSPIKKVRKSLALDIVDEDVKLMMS

B1: B-Myb DNA binding domain (B-Myb^34-183) (domain or fragment)
chain: not shown
In turn, B1 returned a Kd of 4.5 µM.
